Here are results for 18 molecules from patent US20230303695A1 (SHANGHAI XBH BIOTECHNOLOGY, published 2023).

Sequences and labels used below:
T1: D1 domain of IGSF8 (recombinant protein) (human, UniProt Q969P0 28-149, limits assumed)
T1 construct: domain: D1 (Ig V-set domain); also called Ig V-set domain of IGSF8
T1 sequence (looked up): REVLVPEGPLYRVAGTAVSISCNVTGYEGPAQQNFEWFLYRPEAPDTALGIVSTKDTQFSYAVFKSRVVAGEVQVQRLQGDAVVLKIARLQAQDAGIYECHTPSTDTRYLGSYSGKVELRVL

T2: full-length IGSF8 (recombinant antigen of the SPR screen; IGSF8 target antigen of the phage panning) (human, UniProt Q969P0 28-579, limits assumed)
T2 sequence (looked up): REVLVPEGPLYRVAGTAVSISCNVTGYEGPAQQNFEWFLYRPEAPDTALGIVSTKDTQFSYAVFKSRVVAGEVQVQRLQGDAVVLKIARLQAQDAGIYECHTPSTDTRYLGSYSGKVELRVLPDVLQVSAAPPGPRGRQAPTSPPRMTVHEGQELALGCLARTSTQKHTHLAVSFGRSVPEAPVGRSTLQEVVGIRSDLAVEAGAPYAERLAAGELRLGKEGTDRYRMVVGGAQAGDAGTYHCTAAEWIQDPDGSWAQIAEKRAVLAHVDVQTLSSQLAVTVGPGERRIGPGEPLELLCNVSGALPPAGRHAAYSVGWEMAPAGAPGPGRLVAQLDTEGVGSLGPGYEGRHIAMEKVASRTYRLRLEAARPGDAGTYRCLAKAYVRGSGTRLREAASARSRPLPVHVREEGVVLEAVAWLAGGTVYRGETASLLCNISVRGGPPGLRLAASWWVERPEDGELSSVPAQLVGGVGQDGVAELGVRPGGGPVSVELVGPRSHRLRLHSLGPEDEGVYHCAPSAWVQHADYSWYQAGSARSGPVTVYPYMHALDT

T3: recombinant human IGSF8 extracellular domain tagged by a human Fc region (IGSF8-hFc) (human, UniProt Q969P0 28-579, biotin label in Examples 17, 18 and 28 (site not given))
T3 construct: also called IGSF8-Fc fusion protein; IGSF8-hFc-biotin; not shown: human Fc region
T3 sequence: T2 sequence (looked up)

T4: IGSF8 extracellular domain (ED) (Homo sapiens (Human), UniProt Q969P0 28-579)
T4 construct: also called IGSF8 ECD
T4 sequence: T2 sequence (looked up)

B1: Antibody C34 (1D7) (antibody, V domains shown)
VH: EVQLLESGGGLVQPGGSLRLSCAVSGFTFNSFAMSWVRQAPGKGLEWVSAISGSGGGTYYADSVKGRFTISRDNSKNTLYLQMNSLRAEDTAIYYCAREVDGYGAFDIWGQGTMVTVSS
VL: DIQMTQSPSSLSASVGNRVTITCRASQTIRNYLNWYQQKPGEAPKVLIYGASTLQSGVPSRFSASGSGTDFTLTISSLQPDDFATYHCQQTFSDPYTFGQGTKVEIK
notes: also called mAb-1D7 (C34)
B2: Antibody C35 (1B1) (antibody, V domains shown)
VH: EVQLLESGGGLVQPGGSLRLSCAVSGFTFNSFAMSWVRQAPGKGLEWVSAISGSGGGTYYADSVKGRFTISRDNSKNTLYLQMNSLRAEDTAVYYCAREGWEVRTPGYFDYWGQGTLVTVSS
VL: DVVMTQSPSSLSASVGDRVTITCRASHRIFSYLTWYHQKPGKAPNLLISGASSLGAGVPSRFSGSGSGTDFTLTISSLQPEDFGTYYCQQSFSDPYTFGQGTKLEIKR
notes: also called mAb-1B1 (C35)
B3: Antibody C39 (8G4) (antibody, V domains shown)
VH: EVQLLESGGGLVQPGGSLRLSCAASGFTFSSYAMSWVRQAPGKGLEWVSGITGSGGSTYYADSVKGRFTISRDNSKNTLYLQMNSLRAEDTAVYYCARSRNLDSWGQGTLVTVSS
VL: DIQLTQSPSSLSASVGDRVTITCRASQSIHNYLNWIQQTPGKAPKLLVFAASTLQRGVPPRYSGRGSGTEFTLTISSLQPEDFATYYCQQSYTTPLTFGGGTKVEIR
notes: also called mab-8G4 (C39)
B4: L1-31 (antibody, V domains shown)
VH: QVQLVESGGGVVQPGRSLRLSCAASGFTFSTYGMHWVRQAPGKGLEWVAVIWDGGKYKYYGDSVKGRFTISRDNSKNTLYLQMNSLRAEDTAVYYCARDGSGWGYAFDIWGQGTLVTVSS
VL: DIQLTQSPSSLSASVGDRVTITCQASQDIGPWLNWYQHKPGKAPKPLVFRSPNLETGVPSRFSASGSGTDFTLTISSLQPEDFATYYCQQYDSFPYTFGQGTKVEIK
B5: L1-32 (antibody, V domains shown)
VH: B4 VH with K56S
VL: B4 VL with R50G
B6: L1-33 (antibody, V domains shown)
VH: B4 VH
VL: B4 VL with R50G
B7: Antibody C10 (antibody, V domains shown)
VH: EVQLLESGGGLVQPGGSLRLSCAASGFTFSRYRMYWVRQAPGKGLEWVSTISRSGGRTVYADSVKGRFTISRDNSKNTLYLQMNSLRAEDTAVYYCARDATGRHYNGMDVWGQGTLVTV
VL: ETTLTQSPATLSVSPGERATLSCRASQSVSSNVAWYQQKPGQAPRLLMFGSGTRATGIPARFSGSGSGTEFTLTISSLQSEDFAAYYCQQYNDWPSFGQGTRVEIKG
notes: also called anti-IGSF8 C10
B8: Antibody C5 (antibody, V domains shown)
VH: EVQLVQSGGGLVQPGGSLRLSCAASGFTFSRYRMAWVRQAPGKGLEWVSNITRSGGVTRYADSVKGRFTISRDNSKNTLYLQMNSLRAEDTAVYYCARDPNRVTAISSHYGMDVWGKGTTVTVSS
VL: EIVLTQSPSTLSASVGDRVTISCRASQSISRWLAWYQQKPGQAPRLLIYDASNRATGVPARFSVSGSETDSTLTISSLEPEDFAMYYCQQRSNWPPMYTFGQGTKLEIKR
notes: also called anti-IGSF8 C5
B9: Antibody C12 (antibody, V domains shown)
VH: EVQLVESGGGLVQPGGSLRLSCAASGFTFSKYKMSWVRQAPGKGLEWVSTIAPSGGGTRYADSVKGRFTISRDNSKNTLYLQMNSLRAEDTAVYYCARGGHFSNPWGQGTLVTVSS
VL: DVVMTQSPLSLPVTLGQPASISCRSSQSLVHTDGDTYLNWYQQRPGQSPRRLIYKVSKRDSGVPDRFSGSGSGTDFTLKISRVEAEDVGVYYCMQGIKRPYTLGQGTKLEIKR
notes: also called anti-IGSF8 C12
B10: Antibody C3 (antibody, V domains shown)
VH: QVQLVESGGGLVQPGGSLRLSCAASGFTFSHYPMRWVRQAPGKGLEWVSSIRRSGGRTKYADSVKGRFTISRDNSKNTLYLQMNSLRAEDTAVYYCARDATGRHYNGMDVWGKGTTVTVSS
VL: DVVMTQSPSSLSASVGDRVTITCRTSQVIGTSLNWYQQKPGRAPRLLIYSASNLQSGVPSRFSGSGHGTQFTLTISSLQPEDFATYSCQQSSRVPHTFGQGTKLEMRR
notes: also called anti-IGSF8 C3
B11: Antibody C6 (antibody, V domains shown)
VH: B10 VH with Q1E, H31P, P33R, R35H, S50R, R52N, R53P, K59W, K113Q, T116M
VL: DIQMTQSPSTLSASVGDRVTITCRASQSINKWLAWYQQKPGKAPKLLIYKASTLESGVPSRFSGSGSGTDFTLTINSLQPEDFATYYCQQSHSAPWTFGQGTKVEIER
notes: also called anti-IGSF8 C6
B12: Antibody C1 (antibody, V domains shown)
VH: QVQLLQSGGGLVQPGGSLRLSCAASGFTFSRYRMSWVRQAPGKGLEWVSRISRSGGATAYADSVKGRFTISRDNSKNTLYLQMNSLRAEDTAVYYCARDATGRHYNGMDVWGRGTLVTVSS
VL: EIALTQSPSSLSASVGDRVTITCRASQTITRHLNWFQQKPGKAPNLLIHGTSALQTGVPPRFSGGGSGTDFTLTINSLQPEDFGTYYCQQSHTKPWTFGPGTKVEIKR
notes: also called anti-IGSF8 C1
B13: Antibody C2 (antibody, V domains shown)
VH: B12 VH with Q1E, R31S, R33P, S35N, A57R, A59S, G102R, R113K, L116T
VL: DVVMTQSPATLSLSPGERASLSCRASRSVGKYLAWYQQKPGQAPRLLFYYASLRAGDIPSRFTASGSGTDFTLTISRLEPEDFAVYYCQQYGSSPRTFGQGTKLEMKR
notes: also called anti-IGSF8 C2
B14: Antibody C7 (antibody, V domains shown)
VH: B10 VH with Q1E, V5E, H31S, R35N, S50R, R52S, K59S, G102R
VL: B13 VL with D1E, V2T, V3T, M4L
notes: also called anti-IGSF8 C7
B15: Antibody C11 (antibody, V domains shown)
VH: EVQLVESGGGLVQPGGSLRLSCAASGFTFSRYRMYWVRQAPGKGLEWVSSISSSGGRTKYADSVKGRFTISRDNSKNTLYLQMNSLRAEDTAVYYCARGVRYCSSPSCSRGPRYAMDVWGKGTTVTVSS
VL: DIQMTQSPSSLSASVGDRVTITCRASYVIRNDLSWYQQKPGKAPKLLIYGTSSLHNGVPSRFSGSGYGTYFTLTISSLQPEDFGTYYCLQDDKYPLTFGGGTKVEIKR
notes: also called anti-IGSF8 C11
B16: Antibody C9 (antibody, V domains shown)
VH: B15 VH with R33D, Y35S, S50R, S52R, S53Y, K59G
VL: DVVMTQSPATLSLSPGEGATLSCRASQSVRGYLAWYQQKPGQAPRLLIYDTFKRATGIPARFSGSGSGADFTLTISSLEPEDSAVYYCQQYFASPWTFGQGTKVEIKR
notes: also called anti-IGSF8 C9
B17: Antibody C4 (antibody, V domains shown)
VH: B15 VH with E1Q, V5L, E6Q, Y35G, S52A, S53R, K59Y
VL: EIVMTQSPSSVSASVGDRVTITCRASQGISSWLAWYQQKPGKAPKLLIYAASSLQSGVPSRFSGSGSGTDFTLTISSLQPEDFATYYCQQANSFPITFGQGTRLEIKR
notes: also called anti-IGSF8 C4
B18: Antibody C8 (antibody, V domains shown)
VH: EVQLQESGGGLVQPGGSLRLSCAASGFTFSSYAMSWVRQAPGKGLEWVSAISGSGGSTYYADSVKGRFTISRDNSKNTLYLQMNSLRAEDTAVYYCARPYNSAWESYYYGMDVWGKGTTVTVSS
VL: B17 VL with E1D, V3Q, W32R, A91R, N92H, F94Y
notes: also called anti-IGSF8 C8

Positions count from the first letter of the chain named.

One test addresses T1, D1 domain of IGSF8 (recombinant protein). Description: SPR, Biacore T100. (In general: SPR reads the build-up and loss of mass on a sensor chip optically.)
The Kd is a measure of binding affinity in units of concentration. Turning to B1, the Kd is under 50 nM. On the same count and under the same terms, the result for B2 reads under 50 nM; that for B3, under 50 nM.

The target of another test is T2, full-length IGSF8 (recombinant antigen …). The test can be described thus: SPR, Biacore T100.
For B1, the Kd was 2.12 nM.

On to B2, for which the Kd is 2.06 nM.

The next test concerns the target T3, recombinant human IGSF8 extracellular …. The test can be described thus: SPR, Ab captured. As to the method: The binding affinities of the L1 and L2 antibodies to IGSF8 recombinant protein were determined by surface plasmon resonance (SPR). Briefly, anti-human Fab antibody was imobilized on acarboxyl-derivatized SPR chip surface, and the antibodies were captured on the resulting surface at 5 μg/ml for 30 seconds.
As a reminder, the koff is the rate constant with which the complex falls apart. Usually kon stands for the rate constant with which the complex forms. For B4, the Kd came to 0.00371 nM, the koff was 7.8e-07 s⁻¹ and the on-rate (kon) stood at 210000 M⁻¹ s⁻¹. For B5, in that order: 0.021 nM, 6.56e-06 s⁻¹ and 312000 M⁻¹ s⁻¹. With B6, the Kd worked out at 0.029 nM, the koff amounted to 8.01e-06 s⁻¹ and the kon is 276000 M⁻¹ s⁻¹.

The target of another test is T4, IGSF8 extracellular domain (ED). The test can be described thus: ELISA on IGSF8 extracellular domain. A general note: In an ELISA, binding on a coated surface is turned into a signal by an enzyme label.
As to B7, the binding result is on record as “binds”. For B8, the binding result is reported as “binds”. The same measure, in the same setting: the result for B9 reads “binds”; that for B10, “binds”; that for B11, “binds”. The same measure, in the same setting: the value for B12 was “binds”; that for B13 was “binds”; that for B14 was “binds”.

With B15, the binding result is given as “binds”. As to B16, the binding result is given as “binds”.

As to B17, the binding result is reported as “binds”.

As to B18, the binding result is recorded as “binds”.
